# Experimental data published in the supplement of paper PMC9170038.
# System: K4 kissing-loop RNA reporter
# Assay: apparent KD of K4 kissing-loop reporter; higher = weaker reporter binding
# Details: Eterna round: R107; input ligand: theophylline 20 uM
# Protocol: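 RNA-MaP round R107: designed RNA switches with theophylline, tryptophan, arginine or FMN aptamers are transcribed on-chip within common flanks. They are titrated with a labelled K4 kissing-loop RNA reporter in RNA-MaP buffer (100 mM Tris pH 7.5, 80 mM KCl, 4 mM MgCl2), without ligand or with the indicated ligand. Median apparent KD per design.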
# 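Note: bound reporter read as fluorescence of individual clusters on recovered sequencing chips by microscopy, with normalized cluster intensities fitted with a binding model.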
row,Sequence,apparent KD of K4 kissing-loop reporter [nM]
1,AGUGCACUGUCAGGAUAUAUACAGUGAUGUUGUGUAUGUCAGCAAGUCAAAGACUUGCUGUUCUGUGUAGAAGGGACUGUGUACA [Omei KL FMN B Exc A v3],467
2,UCUGCAAAGUCGGCCGCCACUCCGGGCCCUAUAAAUGGGCGCAGUGAUGUUGCGGCUAGGCCUCUGAGGACCGGGACUUUAUAGA [Anarisgema],88.3
3,GGGAAGUACGGAGGAUAUGCACUGAGGAGGAGAAUAUAGUGAUGUUAUAUAAGAGGAAGGAGAAGAGUAGAAGGCCGUGGAAAGG [SSFMNB.C],151
4,AUUCAUUUCAGAGGAUAUCGCUGGAGAGUGAUGUUCUCCCAUAGUCAGUGAUGUUGGCUAGCUAUGCGAGAAGGCUGUGGGUGGA [Same State FMN B GF 28],356
5,GCUCGGGAGUGAUGUUCCAAGUGGUGUUAACGAGGACCGGUACGGCCGCCACUCGAUACGGCCGGGCCGUAGGAUAAACUGGAGC [Same State - Tryptophan A (Freestyle 13)],174
6,AGAGUUAUGCGAGGAUAUGCGGUUAGUACUCAAAGAGUACUAACAGCAGAGUGAUGUUCUGUGAAAGCAGAAGGUGCAUAACUCA [Omei KL FMN B SS B v10],1120
7,CUAAUCGCUCAUGAUACCAGCUAGUGAUGUUAGCCCGUCAAGCUGAGGGUUCAUCCACCCAGCCCUUGGCAGCAUUCUCGGUCAG [theeternabot_exclusion_KL_Theo_B_8],449
8,GCCUAGCAGGGAAGGAGCGGCAUAAGCAUAGAUAAUAUGCAGUUAGUGAUGUUAAUACUAUGCCAGGUAGGUCGCCCUGCUAGGC [KL-SSArg B7],623
9,AGACUACUGAUAGGAUAUAACAUACUAACUCGUAUACCAAAGGUAUACGAGACCCUUCUAGUGAUGUUAGAAGGGUCGGUAGUCA [Omei KL FMN B Exc B v6],74.8
10,CGAUACGGAAAUACGUGUCUCUAUUCAGAAGGAGCGUGGUAGUACACAGGUAGGUCGCUGAAAUUUAAACUAGUGAUGUUAGACU [JR_SSArginiA_Sub004],884
11,CGAGUGAUGUUCGUUUUUUACUCUGUUUGACAGGAUAUGCGGAAACGCAGAAGGGUCACCUUUGAGUUAAACGGAGUUAUUUUUU [Ex FMN A 20],306

# Same assay, conditions: Eterna round: R107; input ligand: tryptophan 2.4 mM
row,Sequence,apparent KD of K4 kissing-loop reporter [nM]
1,UGUCAUUGGUCGGCCGCCACUUCAAAAGGUCAAAGACCAGAGUGAUGUUCUUCACGAAACGUGAGAAGGACCGGGACCGAUGACU [TrypBS 12 #SwitchBubble #K4Middle],638
2,UGAUAGGACAGAAGGAGCGGAAGUGAUGUUUCCAAAAGGGAAGGUCGACAAAGUCGACCCUUCCAGGUAGGUCGCUGUCCUAUCU [ArgBX 9 #Palindromic #SwitchBubble #StaticStem],68.7
3,UGGAGUUGACGAAAAGUCAACUCCUGGGAAGGAGCGGACGAAAGUCCAGGUAGGUCGCUCACUACCAGUGAUGUUGGUACUAAAA,215
4,UAUUUAUUAACUGAUACCAGACUUAAUGAAUUGUAAAUUACUAGUGAUGUUAGUGAAUCUGUCCCUUGGCAGCAGUAUUUAUUAA [JR_Nu_ExcTheophyB_Sub028],85.1
5,CCCGUGGGUUCGAGAGGGCUUGUGGGAAGUAAGGAUAUUUAGGGAGAAAGAAGGUACUAUAGAAUAUAGUGAUGUUAUAUAUGGG [#07 K4 FMN A Same State],203
6,UUGGAGUGAUGUUCCAUAUCUUGAGCGGAAGGAGCGGCAAAAGUGCCAGGUAGGUCGCCGCAGAAGGUACCAGUGAUGUUGGAAA [Same State Arginine A GF 3],109
7,UUUUAGGUAUCUGAUACCAGAGAAAAUAUAUGUAGUGAUGUUAUAUACAAAAUAAUUAAGCUCCCUUGGCAGCAGUUUUAAUUUU [AstrosExc-TheB#5],633
8,AGUGUUAGGUUAGAUACCAGCCGUUCGUGAAUAAUCCUCGAACCGCCAGUGAUGUUGGCAGGCCCUUGGCAGCUAACAGAACAGA [Maxeusla],223
9,UGAUUGCCAGUGAUGUUGGCAGUGACUGAAGGAGCGCGUGAAAACGCAGGUAGGUCGCAGUUGAGUGCCAAUUGAUCGAAAGAUC [KL-XArg-A5],249
10,UAUAUAUGAUGUGAUACCAGUGAAAAGCCAGUGAUGUUGGAAGAACUGGUAUAUAAAUAACACCCUUGGCAGCACAAUCACGUAU [theophylline b exclusion],268
11,UGUCAUGGAAACAUGAACGUUGAUGUUCGACGAGGACCGGUACGGCCGCCACUCGAGUAAUAGUCAGUGAUGUUGACUUGUCUAA [KL-SSTryp-A form1 sub3],76.5
12,GGAGAGAACUGAAGGAGCGCCAAGAGAGAAGGAAAUAUAGUGAUGUUAUAUAAGAGAGAGAGGCAGGUAGGUCGCAGAGGGAGGA [#03 K4 Arginine B Exclusion],112
13,UGUCAUUGGUCGGCCGCCACUUCGUGUAGAGUGAUGUUUUGUAGGACGGAUCGAAAGAUCUGUCGAAGGACCGGGACCGAUGACU [FiskerMod 18 - Jieux - Same State - Tryptophan B],1100
14,UGUGCCAACAGUGAUACCAGCGUGGAGUGAUGUUCCGAGGAUCGGAGUGAUGUUCCGAAGCGCCCUUGGCAGCGCAGAAGCGCGA [Exclusion Theophylline B GF 26],182
15,ACCUACCAUUAGUGAUGUUAAUGGACGGAAGGAGCGCAGAUAUCUGCAGGUAGGUCGCCGAAGGCUAGACAUUGUCUAGCCAUUU [AK1.3 SS Arginine A],180
16,UCCUGCAAUCUACCACGAAAGUGGAUGGAUACCAGAGUCGAAAGACUCCCUUGGCAGCCAGUGAUGUUGGAGCAGGUAAAAUAAA,529
17,GAGUGGCAGACGGCCGCCACUCUUAGCAGCCAGCGGAGUGAUGUUCCGCCCGAGUGAUGUUCGGAGAGGACCGGGUUUGUUGUAA [Exclusion Tryptophan B GF 29],125
18,UGUUUUUACUGAAGGAGCGGCAAUUGAUACGUAGAUAUAGUGAUGUUAUAUAAGAUAGAGAGCCAGGUAGGUCGCAGAAUGAAUC [ExArgB.aD],156
19,CAUAGACAAGUGAUGUUUGUCAUAACCGAAGGAGCGUCUUUAAAGACAGGUAGGUCGCGGAUUAGUUAAGUUAUGAUUCUUUAUG [#19 K4 Arginine A Same State],453
20,GCAGUGAUGUUGCGCAUGUACAGUGGAGUGCGAGGACCGGUACGGCCGCCACUCGUACAGAACAAGCUAAUAUAUGGAUAGGUGA [IX],306
21,ACGGGCGGCUGAAGGAGCGGGCGGGCCCGAGUGAUGUUCGGGUGGGCCGUGAGGUCCGGAGCCCAGGUAGGUCGCGGUUCCGCCU [#2 Same State - Arginine B Attempt #14 (HarryS)],181
22,GUCAUCAGAUCGCAAGAUCUGAUAGCCGAUACCAGCGCGAAGGUGCGCCCUUGGCAGCGGCACCGAGUGAUGUUCGGUCAGACGA [#2 Same State - Theophylline A Attempt #5 (HarryS)],427

row,Sequence,apparent KD of K4 kissing-loop reporter [nM]
1,CUAUGGAAACAUAGGAGUCGGGAAACCGAUACCAGUAUGGAAACAUACCCUUGGCAGCGGAAUGAUUCAACGGAGUGAUGUUCCG [Theophylline A K4 19],366
2,AAUACAGUACAACCGAGUGGAACACAAAUACGAGGACCGGUACGGCCGCCACUCGUGCAGAAUUUCAGUGAUGUUGAAAUACUGC [Exclusion Tryptophan A GF 6],149
3,AGUUCCUCUGUCGAUACCAGCUUCAGUUGGCGGCCAGUGAUGUUGGUAUCGCCGAUGCCAAGCCCUUGGCAGCGACAUGAGACCC [Lausso],197
4,UUUUAAAUAUCUGAUACCAGAGAAAAUAUAUGUAGUGAUGUUAUAUACAAAAUAAUUAAGCUCCCUUGGCAGCAGUAUUAAUUUU [AstrosExc-TheB#3],541
5,GUAGACGUACCUUCAGUGAUGUUGAAGGAUACCAGAUGUUACCACAUCCCUUGGCAGCCUUGGGAUAACAGUGAGUCGGAAUAUG [Uslediti],142
6,UGUACCGAGUCAGGAUAUCAACGACUGACAAAAGUCGGUCGAAUAUCCAGUGAUGUUGGAAAUAAAUGAGAAGGGACUUGGUACU [FmnBS 14 #SwitchBubble #StaticStem],265
7,GCGGGCCAGACGGCCGCCACUCCGGGCAGUGAUGUUGCGAAAAUUCUACUAGAGUGAUGUUCUACGAGGACCGGGUCGGAACGCG [Exclusion Tryptophan B Gf 12],257
8,GCGGACAUUCGCAGUGAUGUUGCGACGGAAGGAGCGCGUGAAAACGCAGGUAGGUCGCCGACAAAAUUAAUUUUAAUGUGUUCGC [Arginine A K4 30],306
9,UGUGUUGUUUUGAUGUUUGGUGUAAGUUGGCAGGAUAUCGUAGAGGCGAGAAGGGCUUUUAUGCGUUAUGAGUGAUGUUUGUAGG [zrrzmullin],699
10,AGGCCCGGCCGAAAGGCCGGGCCAAGAGAUACCAGCAGCGAAAGCUGCCCUUGGCAGCUCACUUAGUGAUGUUAAGAGAUAAAUG [SS Theo A Tesla 1.2],279
11,AGUGCACUGUCAGGAUAUAUACAGUGAUGUUGUGUAUGUCAGCAAGUCAAAGACUUGCUGUUCUGUGUAGAAGGGACUGUGUACA [Omei KL FMN B Exc A v3],426
12,UCUGCAAAGUCGGCCGCCACUCCGGGCCCUAUAAAUGGGCGCAGUGAUGUUGCGGCUAGGCCUCUGAGGACCGGGACUUUAUAGA [Anarisgema],175
13,GGGAAGUACGGAGGAUAUGCACUGAGGAGGAGAAUAUAGUGAUGUUAUAUAAGAGGAAGGAGAAGAGUAGAAGGCCGUGGAAAGG [SSFMNB.C],117
14,AUUCAUUUCAGAGGAUAUCGCUGGAGAGUGAUGUUCUCCCAUAGUCAGUGAUGUUGGCUAGCUAUGCGAGAAGGCUGUGGGUGGA [Same State FMN B GF 28],384
15,GCUCGGGAGUGAUGUUCCAAGUGGUGUUAACGAGGACCGGUACGGCCGCCACUCGAUACGGCCGGGCCGUAGGAUAAACUGGAGC [Same State - Tryptophan A (Freestyle 13)],152
16,AGAGUUAUGCGAGGAUAUGCGGUUAGUACUCAAAGAGUACUAACAGCAGAGUGAUGUUCUGUGAAAGCAGAAGGUGCAUAACUCA [Omei KL FMN B SS B v10],1320
17,CUAAUCGCUCAUGAUACCAGCUAGUGAUGUUAGCCCGUCAAGCUGAGGGUUCAUCCACCCAGCCCUUGGCAGCAUUCUCGGUCAG [theeternabot_exclusion_KL_Theo_B_8],364
18,GCCUAGCAGGGAAGGAGCGGCAUAAGCAUAGAUAAUAUGCAGUUAGUGAUGUUAAUACUAUGCCAGGUAGGUCGCCCUGCUAGGC [KL-SSArg B7],537
19,AGACUACUGAUAGGAUAUAACAUACUAACUCGUAUACCAAAGGUAUACGAGACCCUUCUAGUGAUGUUAGAAGGGUCGGUAGUCA [Omei KL FMN B Exc B v6],73.9
20,CGAUACGGAAAUACGUGUCUCUAUUCAGAAGGAGCGUGGUAGUACACAGGUAGGUCGCUGAAAUUUAAACUAGUGAUGUUAGACU [JR_SSArginiA_Sub004],905
21,CGAGUGAUGUUCGUUUUUUACUCUGUUUGACAGGAUAUGCGGAAACGCAGAAGGGUCACCUUUGAGUUAAACGGAGUUAUUUUUU [Ex FMN A 20],320
